Measured values from the DeepSol protein solubility set.

assay: soluble on expression in E. coli; label from the status in PepcDB or PDB records

Sequence	soluble on expression in E. coli
MPYLLEMKNITKTFGSVKAIDNVCLRLNAGEIVSLCGENGSGKSTLMKVLCGIYPHGSYEGEIIFAGEEIQASHIRDTERKGIAIIHQELALVKELTVLENIFLGNEITHNGIMDYDLMTLRCQKLLAQVSLSISPDTRVGDLGLGQQQLVEIAKALNKQVRLLILDEPTASLTEQETSILLDIIRDLQQHGIACIYISHKLNEVKAISDTICVIRDGQHIGTRDAAGMSEDDIITMMVGRELTALYPNEPHTTGDEILRIEHLTAWHPVNRHIKRVNDVSFSLKRGEILGIAGLVGAGRTETIQCLFGVWPGQWEGKIYIDGKQVDIRNCQQAIAQGIAMVPEDRKRDGIVPVMAVGKNITLAALNKFTGGISQLDDAAEQKCILESIQQLKVKTSSPDLAIGRLSGGNQQKAILARCLLLNPRILILDEPTRGIDIGAKYEIYKLINQLVQQGIAVIVISSELPEVLGLSDRVLVMHEGKLKANLINHNLTQEQVMEAALRSEHHVEKQSV	not soluble
KLKSVEKKLSESESRLELALEAANMGTWSWNIKRNEIFWSEQVLYIFGIKPEEFKGDFESYLNLIPSNERVQVEEYITNVLAKLQKEFFFDHSIQTPSGVKKRVYCKGKLYADHAGMPDSMTGVVLDVT	not soluble
MYGYYSIGELTKEFSITARTLRYYEEEGLLVPCRHGSARFYTQTDRHKLKQILRAKRVKFSLSEISEMLSMVGKPPTDEKKLKELIAGVNKKRADLQQMQRDIDDFLHDLERIEETLFESLAELGVNR	not soluble
MLDDTGERIIPKNMKPMNGMLLEHLARYYFSTPYASGRVLDIACGTGYGSVMVAKTRKTEVDQVLGVDFDADVIHYAKQNYYHPKVSFLVGDAMDPYLRNQIGTFDTILSFETIEHVKDDRLFIERMRQLLKKDGTLVLSTPFGQGRGKPSDEPFHYHQLTEEEFRSLFDSFSEKEVFYQRGVTIEPKRTNVHYAFGVAVCKKLEHHHHHH	soluble
MSLDIFIMDPNEKLTSERLKDFLDRHAARLSRYERLMNMYMGKHPILYEKEKELGKPNNRLVVNFAKYIVDMLNGYFIGIPVKTIHENKEVAAKMKEIAKRNSQNDNNAELSKMCSIYGHAYEFLYQDENAHTRVTYVDPREAFVIYDNTVAQEPLYGVRVLKDDKERPYGTIYSRYDERDFFTSDDGELVIEEKGQEHFFGDVPLIEYVENNERQSAFESVETLINAYNKAISEKANDVDYFADAYLVILGAELDEETIKQIRDNRVINLKSGDGQKIVLEFLDKPNADTTQENLIERLERLIFQISMVANISDEKFGTSSGIALKYKLQPMENIALMKERKFNNGMIRRFKMMFNIPTNFGVDPDEYLNIEYVFTRNIPNNILEEAETAEKLAGITSRQTQLSVLSVVDNVQNELDRIQKEKEGEEINSFNRDMNSPFFGSGELDDGQEEEGHHHHHH	not soluble
GPGSMNPSAAAYIPQQSDAKGDPKSSSAAAVAKPPSTQPATKLSAAAEPFVPGGPKQMSATSTHVDPKATTEDEKTTAPLLMECPASSLPDSAAAAGAAKKEADENDDSQLDWLPEAQPTDWSESKLPKLFGCHNTAAKATSSAIPLHASWDLYADDHQGSSNMASNSSPTSTMSFEPIFVSNVGDVESFWRLWRYLPAPSALPTVYTYSWFRKDIKPEWEHPRNKKGGTISIVVFDRDRSGLSDKQVLDDVFMAMLVGAVGESFHECSTTLNGIMLKVRSNKPVTLQLWTAHSEVGKLKAFANSVRDTLTKIMGAKTLQKLEYYSHHQKQAATNSLAARMKGKTKISPDHTF	soluble
MGSDKIHHHHHHMSEKQQILDYIETNKYSYIEISHRIHERPELGNEEIFASRTLIDRLKEHDFEIETEIAGHATGFIATYDSGLDGPAIGFLAEYDALPGLGHACGHNIIGTASVLGAIGLKQVIDQIGGKVVVLGCPAEEGGENGSAKASYVKAGVIDQIDIALMIHPGNETYKTIDTLAVDVLDVKFYGKSAHASENADEALNALDAMISYFNGVAQLRQHIKKDQRVHGVILDGGKAANIIPDYTHARFYTRAMTRKELDILTEKVNQIARGAAIQTGCDYEFGPIQNGVNEFIKTPKLDDLFAKYAEEVGEAVIDDDFGYGSTDTGNVSHVVPTIHPHIKIGSRNLVGHTHRFREAAASVHGDEALIKGAKIMALMGLELITNQDVYQDIIEEHAHLKGNGK	not soluble
MASLLFRQARVFDGESVHTDYDVLVVDGKIAQLGSAIEAPADAEIIEAHGKTLLPGLIDSHTHAKPPALEMALTFGVTTELDMFSDPAWMTEQRREAQTRNSMADVRSAMTGASVAGGHPTGLVGVVFDKQCPVLENAEDAEAFVAARVAEGADYFKLVIEDGTILGHEVPRLSDEMVYALVAAAHAQGLMAVAHAMTVELALLAIRAGVDGLMHVAGDRLMTDEEVAEVAQSGIFVVPTLSTMASVYGDKHGQHLAEDDRTRPLLSDAWAENLCQCWHLTNPGSTANVIDATRRLYEAGVDVLAGSDAVTVGVPGTAHGVSMHGELELLVDCGLSPAAALRAATLLPAKRFSLDDRGRIAPGLQADLVLVDGDPTTDVRQTLSIEGVWRRGEQAPRIGQAEGVGTASAASAVAG	soluble
MAHHHHHHMEPSTLPYITRDVATEPPTTIAIVSCGGQPPELSGKDETMFAVTEDCVEPTKGWINREGKPLLTVCFMHSFGKCVGRTSSNPATCFQIHIKANVLNALRKHYTNPTRRFFTRTVKAMLSPELRRLLCMRAHKEFKVQYLEYRVSDIFPSTGLLQYEAAYRRWLFSDDTNAEHAGTITVLQCLQFSMTGSCDSSTDCPYIHADLKKAQARDPMLARALRDVSDANQGLPTVSIRVPELLPAGHSSTICPADATYATLTDGANLQSGMPSDPARDFTKVPAFTLVYGEGESGGRCVPLQMHQRESSSSSAGGHANSTYPLSHVPFINQDDPASEMTAAKSQPTSGKNEKASVSGKSGSGWVNNSNEGAGSINNHTGSCGSGTD	not soluble
MINITSMRDSFGDWAEKFLKSKEADGVSVSQLNSYKNYCRNHLSPLYMKSLSEILPADIQSIINETKLAKNTLKAIRNTASQIFRLAIENRAIDFNPADYVRIPKIAPEFHRDALEHHHHHH	soluble
SVPLVAVVSGPRAQLFACLLRLGTQQVGPLQLHTGASHAARNHYEVLVLGGGSGGITMAARMKRKVGAENVAIVEPSERHFYQPIWTLVGAGAKQLSSSGRPTASVIPSGVEWIKARVTELNPDKNCIHTDDDEKISYRYLIIALGIQLDYEKIKGLPEGFAHPKIGSNYSVKTVEKTWKALQDFKEGNAIFTFPNTPVKCAGAPQKIMYLSEAYFRKTGKRSKANIIFNTSLGAIFGVKKYADALQEIIQERNLTVNYKKNLIEVRADKQEAVFENLDKPGETQVISYEMLHVTPPMSPPDVLKTSPVADAAGWVDVDKETLQHRRYPNVFGIGDCTNLPTSKTAAAVAAQSGILDRTISVIMKNQTPTKKYDGYTSCPLVTGYNRVILAEFDYKAEPLETFPFDQSKERLSMYLMKADLMPFLYWNMMLRGYWGGPAFLRKLFHLGMS	soluble
ATHYSVADRWGNAVSVTYTINASYGSAASIDGAGFLLNNEMDDFSIKPGNPNLYGLVGGDANAIEANKRPLSSMSPTIVLKNNKVFLVVGSPGGSRIITTVLQVISNVIDYNMNISEAVSAPRFHMQWLPDELRIEKFGMPADVKDNLTKMGYQIVTKPVMGDVNAIQVLPKTKGSVFYGSTDPRKEF	soluble
MITAYIALGSNLNTPVEQLHAALKAISQLSNTHLVTTSSFYKSKPLGPQDQPDYVNAVAKIETELSPLKLLDELQRIENEQGRVRLRRWGERTLDLDILLYGNEIIQNERLTIPHYDMHNREFVIVPLFEIASDLVLPNSQIITELVKQFADHKMIKLNP	soluble
SNAMIIADNIKQFHSIRNSLIKQQKIGFVPTMGALHNGHISLIKKAKSENDVVIVSIFVNPTQFNNPNDYQTYPNQLQQDIQILASLDVDVLFNPSEKDIYPDGNLLRIEPKLEIANILEGKSRPGHFSGMLTVVLKLLQITKPNNLYLGEKDYQQVMLIKQLVKDFFINTKIIVCPTQRQPSGLPLSSRNKNLTSTDIEIANKIYEILRQDDFSNLEELTNKINSTGAKLQYIQKLNNRIFLAFYIGKVRLIDNFLKETGPSC	soluble
VNEIVVNPNATLDWQLALRQAAGKTDLARDMLQMLLDFLPEVRNKVEEQLVGENPEGLVDLIHKLHGSCGYSGVPRMKNLCQLIEQQLRSGTKEEDLEPELLELLDEMDNVAREASKIL	not soluble
MSSMEGKKVPQVTFRTRQGDKWVDVTTSELFDNKTVIVFSLPGAFTPTCSSSHLPRYNELAPVFKKYGVDDILVVSVNDTFVMNAWKEDEKSENISFIPDGNGEFTEGMGMLVGKEDLGFGKRSWRYSMLVKNGVVEKMFIEPNEPGDPFKVSDADTMLKYLAPQHQVQESISIFTKPGCPFCAKAKQLLHDKGLSFEEIILGHDATIVSVRAVSGRTTVPQVFIGGKHIGGSDDLEKYFA	soluble
ALSGSSGYKFGVLAKIVNYMKTRHQRGDTHPLTLDEILDETQHLDIGLKQKQWLMTEALVNNPKIEVIDGKYAFKPKYNVR	soluble
MGSDKIHHHHHHMKNGKISESVLKRSVLKQLHTKSDRILFKPAVGEDCAVISMQAGGKTKLVTATQTFTLDVSDKHVRANCAVYDALNNIYAMGADPVGIELALLVPTTENEAVLRETVRAIDAVCEKAGIVVLGGHTQVSRAVKNIVVTVTAIGEAYEQALTPSSAAAPGMDVIVTGYVGLEGTAILANEKRTELETRFSKAFIDKSAAYIDHISTAMEAASAIGAGVAAIHDASQGGIFGALWDMAEASGIGLDIDLKKLPIRQDTIEISEFFDINPYKLLSGGSLIIIAADGTRVVRELEKTGQNAVIVGATTDSNDRVLISGEERRFLETAQTDEIYKVFN	not soluble
MNGGSSIKVLGLVGSPKVDGNTAKMVDAILEGAAENGAETVIYNLASLDIKGCDACHRCQETGCCAIDDDMQELYRQIEEADAVVLGSPVYMWQMTAQTKLLIDRMTAFLKPNFSSRLDHKKLILVFTQGIPDRDAFNSYFEYTAGVLYYLGFDVLETIVAAGTDNLEVAFRPRLLEKSRELGKLISASNPVSPRYRRALEHHHHHH	not soluble
MGSDKIHHHHHHMINFLPYSLDILRAADRDRYISVLFAPKKKRRALAALYAFNAEIARIRENVHNPLIGEIRLRWWYDSIAKSEMEKSESNPILSDLFMAMTLFNLPKTAFLRYCDAQILDLYHNPIATLYDLEFYCGETASIILQLSCQILDPDMAQNFTDAYQHAGIAQGLSGVLRLLSFMQSRYQYYLPADMLKALGIKREELESNRISKEQKCHVIEAMVALSRDHYNRFYEYFNMMPKTLKPAFLPLAIIPASLQKAIQLGAAVFQENAALPLLHRYWFITKAAISSNLPKIL	not soluble
MSDSLPQRNGGQILVEALRRNAVDTVYCIPGESYLPVLDALYDTDGIRTVVTRHEGAASNMADAYGKLTGRPGICFVTRGPGATHAANGVHTAQQDSTPMILFVGQVESAFKGREAFQEVDYVQMFSGLAKWAVEIDRIERIPEIVGRAFSVATSGRPGPVVVALPEEILFGSAQVADAPEPRVLPGRPGATAMAELRELLANARRPLLVLGGSGWDSAARKRLGAFVEANGLPVATSFRRQDLFDNRDPHYAGQLGFGAAPALLERLRQADLLLVVGARLGETPSAGYSLVRSPAPAQTLIHVHPDSAELNRVYLARLPIQATPCAFAEALADLAPLPSSTWQDWREAAHADYLAYSTPAASDPAVQGVDLASVVAYLSENLPDDAVIANGAGNYAVWVHRFYRYRQARTQLAPTNGAMGYGLPAAIAASLRDPQRSVVCFAGDGCFMMYPQELATAAQFGATPVVIVVNNGMLGTIRMHQEREYPGRVSATRLDNPDFVALARAFGAHAERVECSADFPAAFRRARESGRPALLELLTDPRQITPQA	not soluble
